# Data taken from the DeepSol protein solubility set.
# Assay: soluble on expression in E. coli; label from the status in PepcDB or PDB records
row,Sequence,soluble on expression in E. coli
1,MLKEVPIKRRQSTKIYVGNVPVGGDAPIAVQSMTNTRTTDIEATIAQIKALERVGADIVRVSVPTMDAAEAFKVIKQQVNVPLVADIHFDYRIALKVAEYGVDCLRINPGNIGNEERIRAVVDCAKDKNIPIRIGVNAGSLERDLQEKYGEPTPQALLESALRHVEILDRFNFDQFKVSVKASDVFLAVESYRLLAKAIKQPIHLGITEAGGARAGSVKSAIGLGLLLSEGIGDTLRVSLAADPVDEVKVGFDILKSLRIRSRGINFVACPTCSRQEIDVIATVNALEQRLEDILTPMDVSIIGCVVNGPGEALVSDLGVTGSNKMSGFYLDGVRQKERFDNDKLIDQLEAKIRAKVAQQHHRIAIEQILEHHHHHH,not soluble
2,MLKLGVIGTGAISHHFIEAAHTSGEYQLVAIYSRKLETAATFASRYQNIQLFDQLEVFFKSSFDLVYIASPNSLHFAQAKAALSAGKHVILEKPAVSQPQEWFDLIQTAEKNNCFIFEAARNYHEKAFTTIKNFLADKQVLGADFNYAKYSSKMPDLLAGQTPNVFSDRFAGGALMDLGIYPLYAAVRLFGKANDATYHAQQLDNSIDLNGDGILFYPDYQVHIKAGKNITSNLPCEIYTTDGTLTLNTIEHIRSAIFTDHQGNQVQLPIQQAPHTMTEEVAAFAHMIQQPDLNLYQTWLYDAGSVHELLYTMRQTAGIRFEAEK,soluble
3,MLKNEETEKKLNLNQQRLGTVVAVLKSVNAKKVIDLGCGEGNLLSLLLKDKSFEQITGVDVSYSVLERAKDRLKIDRLPEMQRKRISLFQSSLVYRDKRFSGYDAATVIEVIEHLDENRLQAFEKVLFEFTRPQTVIVSTPNKEYNFHYGNLFEGNLRHRDHRFEWTRKEFQTWAVKVAEKYGYSVRFLQIGEIDDEFGSPTQMGVFTLGAGGHHHHHH,soluble
4,MLKSLQIPVEKLTSKGIKSAEDRITWVKREIGRLPEKEEVFNAILEALKEELGIEPYWGELTKEELELFEEKKDYFKSDEWIYHVKKAITGDEILYGIYRCPGGTFRVSAKVDPQTKVLQQVIINGDFFINPKRLIYDLEAYLKHTPVQEVEKRIREFFKEREFESVNLTVDDFVEA,soluble
5,MLKSVQGLWKDFFGIRDDGRKREYGSLDEVRKRSALRSRRKQMRPTGKSVLKRPRKVTDRKTEEKIRTNRRKTPKRRLTKIFQTIRDVFSNDNENMSKMQNVCGDMTRILKKRSQGRPSYMDTDTAKSRILRSDAFKRKISELKYNKQRISELRSGSSDGSSGKDRNQSLYLDREILLQRQIKKRDEKIKALESKLQSLQEALNYSNEKYRILEDLLDSSNIHPSYTKSRRTMSNLARENDEIKPLKIDLSPSPIRRTNSLFTSSPMKTYNRDGNIPEMQPLQENISPACPTPPYRSRETEKEDETLSPISVDFSSYLS,soluble
6,MLKVEMLSTGDEVLHGQIVDTNAAWLADFFFHQGLPLSRRNTVGDNLDDLVTILRERSQHADVLIVNGGLGPTSDDLSALAAATAKGEGLVLHEAWLKEMERYFHERGRVMAPSNRKQAELPASAEFINNPVGTACGFAVQLNRCLMFFTPGVPSEFKVMVEHEILPRLRERFSLPQPPVCLRLTTFGRSESDLAQSLDTLQLPPGVTMGYRSSMPIIELKLTGPASEQQAMEKLWLDVKRVAGQSVIFEGTEGLPAQISRELQNRQFSLTLSEQFTGGLLALQLSRAGAPLLACEVVPSQEETLAQTAHWITERRANHFAGLALAVSGFENEHLNFALATPDGTLALRVRFSTTRYSLAIRQEVCAMMALNMLRRWLNGQDIASEHGWIEVVESMTLSV,soluble
7,MLKVEMLSTGDEVLYGQIVDTNAAWLADFFFHQGLPLSRRNTVGDNLDDLVTILRERSQHADVLIVNGGLGPTSDDLSALAAATAKGEGLVLHEAWLKEMERYFHERGRVMAPSNRKQAELPASAEFINNPVGTACGFAVQLNRCLMFFTPGVPSEFKVMVEHEILPRLRERFSLPQPPVCLRLTTFGRSESDLAQSLDTLQLPPGVTMGYRSSMPIIELKLTGPASEQQAMEKLWLDVKRVAGQSVIFEGTEGLPAQISRELQNRQFSLTLSEQFTGGLLALQLSRAGAPLLACEVIPSQEETLAQTAHWITERRANHFAGLALAVSGFENEHLNFALATPDGTFALRVRFSTTRYSLAIRQEVCAMMALNMLRRWLNGQDIASEHGWIEVVESMTLSV,not soluble
8,MLKYNVRGENIEVTDALRSYVEKRLNKLEKYFELNQDVIAHVNLRVYRDHSAKVEVTIPLPYLVLRAEETTDDMYRSIDFVSEKLERQIRKYKTRVNRKSREKGLQDFFVEQPEEEKKPSEFDIVRNKRVSLKPMDPEEAILQMDMLEHDFFVFEDAETNGTSVVYRRNDGRYGLIETNELEHHHHHH,soluble
9,MLLLPSAADGRGTAITHALTSASTLCQVEPVGRWFEAFVKRRNRNASASFQELEDKKELSEESEDEELQLEEFPMLKTLDPKDWKNQDHYAVLGLGHVRYKATQRQIKAAHKAMVLKHHPDKRKAAGEPIKEGDNDYFTCITKAYEMLSDPVKRRAFNSVDPTFDNSVPSKSEAKDNFFEVFTPVFERNSRWSNKKNVPKLGDMNSSFEDVDIFYSFWYNFDSWREFSYLDEEEKEKAECRDERRWIEKQNRATRAQRKKEEMNRIRTLVDNAYSCDPRIKKFKEEEKAKKEAEKKAKAEAKRKEQEAKEKQRQAELEAARLAKEKEEEEVRQQALLAKKEKDIQKKAIKKERQKLRNSCKTWNHFSDNEAERVKMMEEVEKLCDRLELASLQCLNETLTSCTKEVGKAALEKQIEEINEQIRKEKEEAEARMRQASKNTEKSTGGGGNGSKNWSEDDLQLLIKAVNLFPAGTNSRWEVIANYMNIHSSSGVKRTAKDVIGKAKSLQKLDPHQKDDINKKAFDKFKKEHGVVPQADNATPSERFEGPYTDFTPWTTEEQKLLEQALKTYPVNTPERWEKIAEAVPGRTKKDCMKRYKELVEMVKAKKAAQEQVLNASRAKK,not soluble
10,MLLRKFCGIEKTDNGYLIHGDAGDIKLVFMTDDIIRIRVSFDRKFKEASYALVTTAWEDELDELFQEERTRIQAKDVVCEEKEDALIFHTTALKLVMKKQPIQFLLYDVEGKLIYNDLKERAFDQDQLGRVTHYSEIHADTDHFYGFGEKTGHLDKKGRHLRMSPKDAIGADPEFGEPLYKHVPFYIRVNEENLHALGLFYNNSYDAVFDMGNERSGYWDSYCYYQADGGDIDLFLINGPKMASVLERYTYLTGRQAMPTKQSLGYTASTMYYAELEQNCDEEIYKVIQKHFDEKIYIDNFWLASGYSSGEEDNLRYVFNWNKKRFPDPEGFFEKMEQEMGINVIPNMKPGILKNHPYRKVFEQYDAFVKTPDKAEDYVGRWWGGEGRFVDFTKKAGRDAWKELLKKNLMAKGMRTVWNDNCEYDGVEDRNAYCDHEGMGGTMAELKIIQSNMMAYTGKEALKEVYPKARPYIINRAGYAGIQRYAQVWAGDNLTDWRTVKFNIATIMGMGLSGMSNAGCDIGGFAGPAPGGELLLRWIQNGIFQPRFCINSANNDNTVTQPWMYEENLPYVQAAYAQRYRMIPYLYSVMRESHENGMPVMRPLFLEFPEDVKCYRDQNLTFMFGPSVLVANVVEKGAITRTIYLPKGTTWYDMNDNFKAYEGGQTIELPVDLSSIPMFLRGSAVYMTTEDIHHIAKDTMKALDLFVSCEEDAEFTYYDDDGWSKEYEEGNFAETKISVKAGDRKQIHFHKNGFYQESWENLNLNVVSKEKGAYWVSVDGEKIPRFLIRDAFDEAETGWYYDMSDRIVKVKCKKPQKDDFEIVVSCEKFDLIGMENEI,not soluble
11,MLMLRSPFSDSNVLDHFLDEITGSVQFPYWRNADHNSFNFSDNIGEIVNDESKFSVQLDVSHFKPEDLKIELDGRELKIEGIQEKKSEHGYSKRSFSKMILLPEDVDLTSVKSAISNEGKLQIEAPKKTNSSRSIPINFVAKH,not soluble
12,MLMTIDISEESLAKESADLLKILLKDRTTKKSIVWATHSYELLGKGFAPSDRINPSKVTGNFANLIQPRSEKSKYEQKDRTKIRAEVFTPTWLVAKQNGYVESKLGSLSLEEYVDLRWLEVTCGEAPYMVTRYDTVTGEEIPLSERVGFVDRKLQRISREVSDEVTFYKLVKDAYHASYGYEYQGDSLLLARENLLATFEDYYLAKTGNQPTLEQKKEIATIISYNVFQMDGLKKSSPYSAKQKQSQQLSLFADELEVQEVEESKTHIKDWKKNRMIGFERLSSEESEMKFDVVIGNPPYQETGEARDEPIYHYFIDEAYKIADKSILITPARFLFKAGQTPKNWMEKMLEDKHLKVQFYELKSGKVFTGTDIKGGVAITYRDVDKDLGPIGVFTIFETLNGIVKKIEKHPEFETFSDLVYPQGIYRFSNKLFSDYPNAEKLQGKGTKNKIVSKSLTQLDFVFKNNEEKDHVALLGRIGSERVYRYINKKYLDLPETFENYNVFVPEANGSGALGEVLSTPLIGEPLIGHTDTFLSIGNFKTKFEADACIKFIKTKFARVLLGVLKVTQHNSRKTWYYVPLQDFTVNSDIDWTQSVTDIDRQLDQKYDLSPEEIAFIENHVREMD,not soluble
13,MLMVVPLSEMGPGDKGIVVNILGGHNARQKLVSMGLTPGATIQVLESHPMGPIIISVGGVRFAIGKGLAGRVMVRKL,soluble
14,MLNNLLQQATSPNGRARQYAIEHTVELTNLIPPTVSYESGGHTLIIGPTMLIERITEPLSSMASITLLSVDGEPGTQSNLYYADTVEISGFLGAFSVNVENHGKRVNLAQAAIGGNSFDIVLDMSLNGLMSEEVPVPGYFPVGRGYPKLADALEEIPTLMGTFDKPKYFRLDPDLCAHSSRGVKGCERCVDACPAGALSSEGSEQTGHRIQINPYLCQGVGTCATACPTEAIHYALPNPTDTQKFIERLLANYHQAGGEKPIVLICSSRHESYNVMALKVLPDNVIPVVVEELPSVGIDSWFAALVNGATQVLFAASRHMPPTIQRILNQEMSMAQSLLTHLGLPKETIDILYLESLREGMPVLCEQPLGLKLGDLIGNKRERLFTALDALAETLNAQPSVQPLSISAPYGTIECQTSDCTLCMSCVAVCPTRALHLAGDSPALRFIEQDCVQCGLCVKACPEQVLSATPQLNWNKAARQGVVTLHQEEPAKCLRCHKPFAPQSMITMLQTKLRGHSHFATPEALNRIAMCEDCRVVDMFEAMAHDPEQQLKY,not soluble
15,MLNPDELVAIDIHTHAEEPCGCHADDGYDDFQARMAEYFGSPNKHPPTVPETAAYYRAKKIAAVIFPVDAERETGFRRYNNDEMIEITRQNSDVLIPFASIDPHKGKIGVREARRLIADYGIKGFKFHPTMQGFYANDRLAYPLYEAIQEGGAIALFHTGQTGVGSGMPGGMGMRLKYSNPMYMDDVAADFPDMKIVLAHPSFPWQEEALSVATHKPNVYIDLSGWSPKYFPPILVRYINSILQDKMLFGSDWPVITPDRWLSDFAKLEIREEVRAKVLKQNARKLLGIAAALEHHHHHH,not soluble
16,MLNRIIEHMNAHHVEDMKGLLKKFGQVHHAENVAFKSVDPQGIVIGYNHNQTLRIEFNHEVKDPKDYKNAIIELCQSVEKTHDLKGVEEEVKAFKESFDSVCLATLHPNGHVVCSYAPLMSDGKQYYIYVSEVAEHFAGLKNNPHNVEVMFLEDESKAKSAILRKRLRYKTNARFIERGAEFDKAFDSFIEKTGGAGGIKTIRAMQDFHLIALDFKEGRFVKGFGQAYDILGDKIAYVGDKGNPHNFAHKK,not soluble
17,MLNSRRIVVVLPAYNAEKTLEMTYAEIPFEHVDHVLLVDDASRDRTAQVAERLGIKTIVHDRNKGYGANQKTCYRAALDLGADIVIMVHPDYQYTPKLITAMAAMIAYGEFDAVLGSRILGIGALKGGMPLYKYVANRVLTLVENLLLSHKLSEYHTGYRAFSRQVLEQLPLDANGDDFVFDNQMLAQIIWHGYRIGELSCPTKYFEDASSINFRRSVIYGLGVLGTALEFRLARMGLIRSGRFTPRNDQAAAQLEHHHHHH,soluble
18,MLNYLFENNCLLCGKEVSPLRSLCENCEEKVLKNGPSFYREVHRKYELFVYSDYTDEIERIIRLYKYHGEVSLSGTLVKLFLKLYSYFPREANLITWVPSSLDSLEDRGFDHMRLLAKRISKELGIPFDAVLENVSEGRQVEKSKEERKRTGRFICKKDPPQNVILIDDVLTTGTSVRDCVETLFRNGVSKVFVYVLAKTRR,not soluble
